The source of these data is PMC4993455.

The target of assay [1] is recombinant methionine adenosyltransferase α1 (MATα1) (rat) (UniProt P13444).
The target of assay [2] is recombinant human methionine adenosyltransferase α2 (MATα2) (human) (UniProt P31153).
Sequence of recombinant human methionine adenosyltransferase α2 (MATα2) (human) (P31153 whole entry): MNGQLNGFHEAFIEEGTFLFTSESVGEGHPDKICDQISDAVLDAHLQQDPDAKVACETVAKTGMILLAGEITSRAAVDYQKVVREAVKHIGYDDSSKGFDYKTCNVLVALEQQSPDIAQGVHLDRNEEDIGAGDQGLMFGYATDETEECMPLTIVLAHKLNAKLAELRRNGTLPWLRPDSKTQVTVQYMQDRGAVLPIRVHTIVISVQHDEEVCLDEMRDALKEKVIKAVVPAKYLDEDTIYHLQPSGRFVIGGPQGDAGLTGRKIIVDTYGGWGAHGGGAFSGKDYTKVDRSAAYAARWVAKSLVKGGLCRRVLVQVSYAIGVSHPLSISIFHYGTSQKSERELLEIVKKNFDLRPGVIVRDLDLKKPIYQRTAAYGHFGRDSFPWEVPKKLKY

Sequence of recombinant PDRG1 (tag excised) (Q642A0 whole entry): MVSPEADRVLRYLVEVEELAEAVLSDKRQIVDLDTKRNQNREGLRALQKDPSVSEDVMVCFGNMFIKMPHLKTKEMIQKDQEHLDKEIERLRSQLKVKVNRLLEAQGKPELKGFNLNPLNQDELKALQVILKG
Sequence of recombinant methionine adenosyltransferase α1 (MATα1) (rat) (P13444 whole entry): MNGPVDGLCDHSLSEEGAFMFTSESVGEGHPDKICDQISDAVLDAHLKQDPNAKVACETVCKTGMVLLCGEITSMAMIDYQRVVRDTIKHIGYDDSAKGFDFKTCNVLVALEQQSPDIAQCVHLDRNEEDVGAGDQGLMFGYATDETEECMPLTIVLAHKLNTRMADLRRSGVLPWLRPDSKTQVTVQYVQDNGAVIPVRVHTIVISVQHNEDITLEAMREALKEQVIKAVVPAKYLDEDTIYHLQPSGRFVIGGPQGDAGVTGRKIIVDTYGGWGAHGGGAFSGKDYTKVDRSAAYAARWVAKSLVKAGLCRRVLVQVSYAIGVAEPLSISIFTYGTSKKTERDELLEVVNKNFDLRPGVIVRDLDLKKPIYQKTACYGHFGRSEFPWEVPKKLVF

For the substance “recombinant PDRG1 (tag excised) (from UniProt Q642A0 1-133) (natural protein)”, in assay [1], the IC50 of PDRG1 (0–5.6 μM) on S-adenosylmethionine synthesis by purified recombinant MATα1 homo-oligomers (0.7 μM) is 3.34 µM and the reduction in AdoMet synthesis by MATα1 homo-oligomers (0.7 μM) with increasing concentrations of PDRG1 (0–5.6 μM) was below 50%. In assay [2], the IC50 of PDRG1 on S-adenosylmethionine synthesis by purified recombinant MATα2 homo-oligomers (0.7 μM) turned out to be 3.79 µM and the reduction in AdoMet synthesis by MATα2 homo-oligomers (0.7 μM) with increasing concentrations of PDRG1 is below 50%.
